From patent US20140044730A1 (Regeneron, published 2014)
Like-named read-outs stand apart in the source and are kept apart here.

What was measured:
[1] = biological target: T1, recombinant cynomolgus monkey PCSK9 with a C-terminal myc-myc hexahistidine tag (cynomolgus monkey, UniProt A8T662 31-692 (Macaca nemestrina entry), limits assumed); assay: cell-based or functional assay
[2] = biological target: T2, human PCSK9 with a C-terminal myc-myc hexahistidine tag and a D374Y mutation (human, UniProt Q8NBP7 31-692, limits assumed); assay: cell-based or functional assay
[3] = biological target: T3, human PCSK9 with a C-terminal myc-myc-hexahistidine tag (human, UniProt Q8NBP7 31-692, limits assumed); assay: SPR 25C pH 7.2, mAb captured;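 also: biacore SPR, antibodies captured on anti-human Fc CM4 chip with PCSK9 flowed as analyte, rate constants from a one-to-one kinetic fit, KD and half-life derived from them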
T3 construct: also called hPCSK9-mmH; hPCSK9-mmh; not shown: C-terminal myc-myc-hexahistidine tag

[4] = biological target: T3, human PCSK9 with a C-terminal …; assay: blocking ELISA pH 7.2, 500 pM hPCSK9-mmH vs coated hLDLR EGFA-hFc, exp #1
Text: (§1) The equilibrated sample solutions were then transferred to the LDLR EGFA-hFc coated plate prepared as described above.

[5] = biological target: T3, human PCSK9 with a C-terminal …; assay: blocking ELISA pH 7.2, 500 pM hPCSK9-mmH vs coated hLDLR EGFA-hFc, exp #2
Text: as §1

[6] = biological target: T3, human PCSK9 with a C-terminal …; assay: SPR 25C, mAb captured;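 also: biacore CM4 surface bearing anti-human Fc antibody capturing the mAbs, PCSK9 binding and release rates fitted with a one-to-one model, KD and half-life derived from those rates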
[7] = biological target: T3, human PCSK9 with a C-terminal …; assay: SPR 25C pH 5.75, mAb captured;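 also: biacore surface with anti-human Fc antibody capturing the antibodies, PCSK9 as analyte, one-to-one kinetic fit, KD as kd over ka, half-life derived from kd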
Experimental: (§2) A Biacore CM4 sensor chip was derivatized with a monoclonal mouse anti-human Fc antibody to capture human antibodies. The histidine substitution variant anti-PCSK9 antibodies were captured onto the anti-human Fc sensor surface from culture medium after transient expression in Chinese hamster ovary (CHO) cells. […] Kinetic association (kₐ) and dissociation (kd) rate constants were determined by processing and fitting the data to a 1:1 binding model using Scrubber 2.0 curve fitting software. Binding dissociation equilibrium constants (KD) and dissociative half-lives (t_{1/2}) were calculated from the kinetic rate constants as: KD (M)=kd/kₐ; and t_{1/2} (min)=(In2/(60*kd).

[8] = biological target: T3, human PCSK9 with a C-terminal …; assay: SPR (Biacore), 37 °C; antibody captured on anti-human Fc surface, hPCSK9-mmH injected (3.125-50 nM); association at pH 7.4, dissociation at pH 5.75
Experimental: (§3) A Biacore CM4 sensor chip was derivatized with a Fab′2 polyclonal anti-human Fc antibody to capture human antibodies. […] Dissociation (kd) rate constants were determined by processing and fitting the data using Scrubber version 2.0 curve fitting software. Dissociative half-lives (t_{1/2}) were calculated from the dissociation rate constants as: t_{1/2} (min)=(In2/kd)/60.

[9] = biological target: T3, human PCSK9 with a C-terminal …; assay: SPR (Biacore), 37 °C; antibody captured on anti-human Fc surface, hPCSK9-mmH injected (3.125-50 nM); association at pH 7.4, dissociation at pH 7.4
Experimental: as §3

[10] = biological target: T1, recombinant cynomolgus monkey PCSK9 …; assay: cell-based or functional assay; remark: listed apart in the source
[11] = biological target: T3, human PCSK9 with a C-terminal …; assay: cell-based or functional assay
[12] = biological target: T2, human PCSK9 with a C-terminal myc-myc …; assay: cell-based or functional assay; remark: listed apart in the source
[13] = biological target: T3, human PCSK9 with a C-terminal …; assay: SPR 25C pH 7.4, purified mAb captured
Experimental: as §2
All measurements were taken at 25° C.

[14] = biological target: T3, human PCSK9 with a C-terminal …; assay: blocking ELISA pH 7.2, 500 pM hPCSK9-mmH vs coated hLDLR EGFA-hFc
Experimental: (§4) Briefly, hLDLR EGFA-hFc was coated at 2 μg/mL in PBS on a 96-well microtiter plate overnight at 4° C. followed by blocking with a solution of 0.5% (w/v) BSA in PBS.
(§5) The equilibrated sample solutions were then transferred to a LDLR EGFA-hFc coated plate.

[15] = biological target: T3, human PCSK9 with a C-terminal …; assay: SPR (Biacore), 37 °C; antibody captured on anti-human Fc surface, hPCSK9-mmH injected (3.125-50 nM); association at pH 7.4, dissociation at pH 7.2
Experimental: as §3

[16] = biological target: T3, human PCSK9 with a C-terminal …; assay: SPR (Biacore), 37 °C; antibody captured on anti-human Fc surface, hPCSK9-mmH injected (3.125-50 nM); association at pH 7.4, dissociation at pH 6.0
Experimental: as §3

[17] = biological target: T3, human PCSK9 with a C-terminal …; assay: blocking ELISA pH 5.75, 500 pM hPCSK9-mmH vs coated hLDLR EGFA-hFc
Experimental: as §4, §5

[18] = biological target: T3, human PCSK9 with a C-terminal …; assay: blocking ELISA, hPCSK9-mmH vs coated hLDLR EGFA-hFc
Experimental: as §4, §5

[19] = biological target: T3, human PCSK9 with a C-terminal …; assay: SPR 25C pH 6.0, purified mAb captured
Experimental: as §2
(§6) Also included in these experiments were several control/comparator antibodies. All measurements were taken at 25° C.

[20] = biological target: T3, human PCSK9 with a C-terminal …; assay: SPR 25C, purified mAb captured
Experimental: as §2, §6

[21] = biological target: T3, human PCSK9 with a C-terminal …; assay: cell-based or functional assay; remark: listed apart in the source
[22] = biological target: T3, human PCSK9 with a C-terminal …; assay: SPR 25C pH 7.2, mAb captured; pH 7.2 (neutral), 25 C
Experimental: as §2

[23] = biological target: T3, human PCSK9 with a C-terminal …; assay: SPR (Biacore), 37 °C; antibody captured on anti-human Fc surface, hPCSK9-mmH injected (3.125-50 nM); association at pH 7.4, dissociation at pH 5.75; remark: listed apart in the source
Experimental: (§7) All experiments were carried out at 37° C.
as §3

[24] = biological target: T3, human PCSK9 with a C-terminal …; assay: SPR (Biacore), 37 °C; antibody captured on anti-human Fc surface, hPCSK9-mmH injected (3.125-50 nM); association at pH 7.4, dissociation at pH 6.0; remark: listed apart in the source
Experimental: as §7, §3

[25] = biological target: T3, human PCSK9 with a C-terminal …; assay: SPR (Biacore), 37 °C; antibody captured on anti-human Fc surface, hPCSK9-mmH injected (3.125-50 nM); association at pH 7.4, dissociation at pH 7.2; remark: listed apart in the source
Experimental: as §3

[26] = biological target: T3, human PCSK9 with a C-terminal …; assay: SPR (Biacore), 37 °C; antibody captured on anti-human Fc surface, hPCSK9-mmH injected (3.125-50 nM); association at pH 7.4, dissociation at pH 7.4; remark: listed apart in the source
Experimental: as §7, §3

[27] = biological target: T3, human PCSK9 with a C-terminal …; assay: SPR 25C pH 7.2, mAb captured; pH 7.2, 25 C
Experimental: as §2

Binder | IC50, LDL uptake in HepG2 cells, 50 nM MfPCSK9-mmH [1] | IC50, LDL uptake in HepG2 cells, 2 nM hPCSK9-D374Y-mmH [2] | t½ [3] | IC50 [4] | IC50 [5] | KD ratio pH 5.75/pH 7.2 [6] | t½ ratio pH 5.75/pH 7.2 [6] | Kd [7] | t½ [7] | Kd [13] | koff [13] | kon [13] | t½ [13] | IC50 [14] | IC50 [17] | IC50 ratio (pH 5.75/pH 7.2) [18] | Kd [19] | koff [19] | kon [19] | t½ [19] | further results
Parental 300N (antibody, V domains shown, also called mAb 300N) VH: EMQLVESGGGLVQPGGSLRLSCAASGFTFSSHWMKWVRQAPGKGLEWVANINQDGSEKYYVDSVKGRFTISRDNAKNSLFLQMNSLRAEDTAVYYCARDIVLMVYDMDYYYYGMDVWGQGTTVTVSS VL: not shown | 10 nM | 1.2 nM | 48 min | 0.226 nM | 0.153 nM | 1.15 | 0.26 | 0.999 nM | 13 min |  |  |  |  |  |  |  |  |  |  |  | Kd [3]: 0.865 nM
300N(v2) (antibody, IgG4, V domains shown) VH: EMQLVESGGGLVQPGGSLRLSCAASGFTFSSHWMKWVRQAPGKGLEWVANINQDGSEKYYVDSVKGRFTISRDNAKNSLFLQMNSLRAEDTAVYYCARDIVLMVYDMDYYYYGMDVWGQGTTVTVSS VL: not shown |  |  |  |  |  |  |  |  |  | 0.546 nM | 7.93e-05 s⁻¹ | 145000 M⁻¹ s⁻¹ | 146 min | 0.221 nM | 0.268 nM | 1.2 | 1.14 nM | 0.000313 s⁻¹ | 274000 M⁻¹ s⁻¹ | 36.9 min | t½ (dissociative half-life) [8]: 7 min; t½ (dissociative half-life) [9]: 34.6 min; IC50, LDL uptake in HepG2 cells, 50 nM MfPCSK9-mmH [10]: 15.7 nM; IC50, LDL uptake in HepG2 cells, 50 nM hPCSK9-mmH [11]: 10.3 nM; IC50, LDL uptake in HepG2 cells, 2 nM hPCSK9-D374Y-mmH [12]: 2 nM; t½ (dissociative half-life) [15]: 46.2 min; t½ (dissociative half-life) [16]: 7.1 min; KD ratio pH 6.0/pH 7.4 [20]: 2.09; ka ratio pH 6.0/pH 7.4 [20]: 1.89; kd ratio pH 6.0/pH 7.4 [20]: 3.94; t½ ratio pH 6.0/pH 7.4 [20]: 0.25; IC50, LDL uptake in HepG2 cells, 100 nM hPCSK9-mmH [21]: 32 nM
VH-M114H (antibody, V domains shown, His variant of 300N) VH: EMQLVESGGGLVQPGGSLRLSCAASGFTFSSHWMKWVRQAPGKGLEWVANINQDGSEKYYVDSVKGRFTISRDNAKNSLFLQMNSLRAEDTAVYYCARDIVLMVYDMDYYYYGHDVWGQGTTVTVSS VL: not shown |  |  |  |  |  |  |  |  |  |  |  |  |  |  |  |  |  |  |  |  | Kd [22]: 386 nM; t½ [22]: 0 h
VK-L30H (antibody, V domains shown, His variant of 300N) VH: EMQLVESGGGLVQPGGSLRLSCAASGFTFSSHWMKWVRQAPGKGLEWVANINQDGSEKYYVDSVKGRFTISRDNAKNSLFLQMNSLRAEDTAVYYCARDIVLMVYDMDYYYYGMDVWGQGTTVTVSS VL: not shown | 19.9 nM | 2.1 nM | 16 min | 0.166 nM | 0.198 nM | 25.5 | 0.01 | 57.8 nM | 0.2 min | 1.82 nM | 0.000293 s⁻¹ | 161000 M⁻¹ s⁻¹ | 39.4 min | 0.209 nM | 43.4 nM | 208 | 27 nM | 0.00845 s⁻¹ | 313000 M⁻¹ s⁻¹ | 1.4 min | t½ (dissociative half-life) [23]: 0.2 min; t½ (dissociative half-life) [24]: 0.4 min; Kd [3]: 2.27 nM; IC50, LDL uptake in HepG2 cells, 50 nM MfPCSK9-mmH [10]: 26.4 nM; IC50, LDL uptake in HepG2 cells, 50 nM hPCSK9-mmH [11]: 9 nM; IC50, LDL uptake in HepG2 cells, 2 nM hPCSK9-D374Y-mmH [12]: 3.3 nM; t½ (dissociative half-life) [25]: 11.2 min; t½ (dissociative half-life) [26]: 10.6 min; KD ratio pH 6.0/pH 7.4 [20]: 14.8; ka ratio pH 6.0/pH 7.4 [20]: 1.94; kd ratio pH 6.0/pH 7.4 [20]: 28.8; t½ ratio pH 6.0/pH 7.4 [20]: 0.03; IC50, LDL uptake in HepG2 cells, 100 nM hPCSK9-mmH [21]: 37 nM
VH-D106H (antibody, V domains shown, His variant of 300N) VH: EMQLVESGGGLVQPGGSLRLSCAASGFTFSSHWMKWVRQAPGKGLEWVANINQDGSEKYYVDSVKGRFTISRDNAKNSLFLQMNSLRAEDTAVYYCARDIVLMVYHMDYYYYGMDVWGQGTTVTVSS VL: not shown | 12.7 nM | 2.7 nM | 35 min | 0.349 nM | 0.395 nM | 4.34 | 0.1 | 9.59 nM | 3.4 min | 1.06 nM | 8.98e-05 s⁻¹ | 84700 M⁻¹ s⁻¹ | 129 min | 0.319 nM | 1.75 nM | 5.5 | 7.04 nM | 0.00075 s⁻¹ | 107000 M⁻¹ s⁻¹ | 15.4 min | t½ (dissociative half-life) [23]: 2.8 min; t½ (dissociative half-life) [24]: 3.5 min; Kd [27]: 2.21 nM; t½ (dissociative half-life) [25]: 42 min; t½ (dissociative half-life) [26]: 36 min; KD ratio pH 6.0/pH 7.4 [20]: 6.64; ka ratio pH 6.0/pH 7.4 [20]: 1.26; kd ratio pH 6.0/pH 7.4 [20]: 8.35; t½ ratio pH 6.0/pH 7.4 [20]: 0.12; IC50, LDL uptake in HepG2 cells, 100 nM hPCSK9-mmH [21]: 32 nM
